Assay results reported in patent publication US20180155451A1 (published 2018).

T1: FcγRIIb (human, UniProt P31994 43-217)
T1 construct: extracellular domain; also called FcgRIIb
T1 sequence (looked up): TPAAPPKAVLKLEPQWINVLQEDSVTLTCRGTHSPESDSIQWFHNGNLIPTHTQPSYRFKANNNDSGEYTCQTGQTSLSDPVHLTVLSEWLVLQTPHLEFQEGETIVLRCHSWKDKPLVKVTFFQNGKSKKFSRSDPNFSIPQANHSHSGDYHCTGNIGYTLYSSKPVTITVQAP

T2: FcγRIIa R (human, UniProt P12318 34-217)
T2 construct: extracellular domain; also called FcgRIIa R; FcγRIIa type R
T2 sequence (looked up): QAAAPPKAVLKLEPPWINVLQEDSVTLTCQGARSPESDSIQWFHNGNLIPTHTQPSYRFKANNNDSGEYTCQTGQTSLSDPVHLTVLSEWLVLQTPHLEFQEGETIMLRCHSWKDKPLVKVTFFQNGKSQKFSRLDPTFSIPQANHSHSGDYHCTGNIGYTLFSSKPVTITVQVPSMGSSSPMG


Legend:
FcγRIIb = molecular target: T1, FcγRIIb; experiment: SPR (Biacore), captured antibody, FcγR analyte; binding relative to GpH7-A5/GpH7-B3/GpL16-k0 = 100
FcγRIIa R [1] = molecular target: T2, FcγRIIa R; experiment: as above
FcγRIIa R [2] = molecular target: T2, FcγRIIa R; experiment: He/Con_2aR divided by He/Con_2b (FcγRIIa R over FcγRIIb); SPR (Biacore)

Binder	He/Con_2b (IIb binding) (FcγRIIb) [control=100]	He/Con_2aR (IIaR binding) (FcγRIIa R [1]) [control=100]	IIaR/IIb (He_2aR/2b) (FcγRIIa R [2]) [ratio]
GpH7-A5/GpH7-B3 variant P329_16H/GpL16-k0 (antibody, human IgG1, kappa, He Ab; IgG1; mutation in one H chain only) heavy 1: not shown heavy 2: not shown light: DIVMTQSPLSLPVTPGEPASISCQASESLVHSNRNTYLHWYLQKPGQSPQLLIYKVSNRFSGVPDRFSGSGSGTDFTLKISRVEAEDVGVYYCSQNTHVPPTFGQGTKVEIERTVAAPSVFIFPPSDEQLKSGTASVVCLLNNFYPREAKVQWKVDNALQSGNSQESVTEQDSKDSTYSLSSTLTLSKADYEKHKVYACEVTHQGLSSPVTKSFNRGEC	39.1	56.7	1.45
GpH7-A5/GpH7-B3 variant S298_11K/GpL16-k0 (antibody, human IgG1, kappa, He Ab; IgG1; mutation in one H chain only) heavy 1: not shown heavy 2: not shown light: DIVMTQSPLSLPVTPGEPASISCQASESLVHSNRNTYLHWYLQKPGQSPQLLIYKVSNRFSGVPDRFSGSGSGTDFTLKISRVEAEDVGVYYCSQNTHVPPTFGQGTKVEIERTVAAPSVFIFPPSDEQLKSGTASVVCLLNNFYPREAKVQWKVDNALQSGNSQESVTEQDSKDSTYSLSSTLTLSKADYEKHKVYACEVTHQGLSSPVTKSFNRGEC	61.3	95.1	1.55
GpH7-A5/GpH7-B3 variant S298_10E/GpL16-k0 (antibody, human IgG1, kappa, He Ab; IgG1; mutation in one H chain only) heavy 1: not shown heavy 2: not shown light: DIVMTQSPLSLPVTPGEPASISCQASESLVHSNRNTYLHWYLQKPGQSPQLLIYKVSNRFSGVPDRFSGSGSGTDFTLKISRVEAEDVGVYYCSQNTHVPPTFGQGTKVEIERTVAAPSVFIFPPSDEQLKSGTASVVCLLNNFYPREAKVQWKVDNALQSGNSQESVTEQDSKDSTYSLSSTLTLSKADYEKHKVYACEVTHQGLSSPVTKSFNRGEC	47.6	65.1	1.37
GpH7-A5/GpH7-B3 variant P329_19Q/GpL16-k0 (antibody, human IgG1, kappa, He Ab; IgG1; mutation in one H chain only) heavy 1: not shown heavy 2: not shown light: DIVMTQSPLSLPVTPGEPASISCQASESLVHSNRNTYLHWYLQKPGQSPQLLIYKVSNRFSGVPDRFSGSGSGTDFTLKISRVEAEDVGVYYCSQNTHVPPTFGQGTKVEIERTVAAPSVFIFPPSDEQLKSGTASVVCLLNNFYPREAKVQWKVDNALQSGNSQESVTEQDSKDSTYSLSSTLTLSKADYEKHKVYACEVTHQGLSSPVTKSFNRGEC	30.7	41.1	1.34
GpH7-A5/GpH7-B3 variant S298_12R/GpL16-k0 (antibody, human IgG1, kappa, He Ab; IgG1; mutation in one H chain only) heavy 1: not shown heavy 2: not shown light: DIVMTQSPLSLPVTPGEPASISCQASESLVHSNRNTYLHWYLQKPGQSPQLLIYKVSNRFSGVPDRFSGSGSGTDFTLKISRVEAEDVGVYYCSQNTHVPPTFGQGTKVEIERTVAAPSVFIFPPSDEQLKSGTASVVCLLNNFYPREAKVQWKVDNALQSGNSQESVTEQDSKDSTYSLSSTLTLSKADYEKHKVYACEVTHQGLSSPVTKSFNRGEC	57.8	85.3	1.48

Second part, the binder after the results:

He/Con_2b (IIb binding) (FcγRIIb) [control=100]	He/Con_2aR (IIaR binding) (FcγRIIa R [1]) [control=100]	IIaR/IIb (He_2aR/2b) (FcγRIIa R [2]) [ratio]	Binder
45.4	61	1.34	GpH7-A5/GpH7-B3 variant P331_01G/GpL16-k0 (antibody, human IgG1, kappa, He Ab; IgG1; mutation in one H chain only) heavy 1: not shown heavy 2: not shown light: DIVMTQSPLSLPVTPGEPASISCQASESLVHSNRNTYLHWYLQKPGQSPQLLIYKVSNRFSGVPDRFSGSGSGTDFTLKISRVEAEDVGVYYCSQNTHVPPTFGQGTKVEIERTVAAPSVFIFPPSDEQLKSGTASVVCLLNNFYPREAKVQWKVDNALQSGNSQESVTEQDSKDSTYSLSSTLTLSKADYEKHKVYACEVTHQGLSSPVTKSFNRGEC
40.4	61.2	1.51	GpH7-A5/GpH7-B3 variant P329_18N/GpL16-k0 (antibody, human IgG1, kappa, He Ab; IgG1; mutation in one H chain only) heavy 1: not shown heavy 2: not shown light: DIVMTQSPLSLPVTPGEPASISCQASESLVHSNRNTYLHWYLQKPGQSPQLLIYKVSNRFSGVPDRFSGSGSGTDFTLKISRVEAEDVGVYYCSQNTHVPPTFGQGTKVEIERTVAAPSVFIFPPSDEQLKSGTASVVCLLNNFYPREAKVQWKVDNALQSGNSQESVTEQDSKDSTYSLSSTLTLSKADYEKHKVYACEVTHQGLSSPVTKSFNRGEC
